The data set has as its system Saccharomyces cerevisiae. Put plainly: protein stability index of tFT-peptide fusion (C-terminal peptide) (PSI (0-1 scale)); higher = more stable (slower turnover). The settings on record: temperature: 30 C. The protocol: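 MPS profiling in S. cerevisiae of the yeast C-terminome library: the last 12 aa of each annotated ORF are fused to the C-terminus of a sfGFP-mCherry timer, after a GGGS linker. Cells are FACS-sorted into 8 mCherry/sfGFP bins and deep-sequenced. PSI runs from 0 (unstable) to 1 (stable); wild type and das1Δ backgrounds, two technical replicates each.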

The mark [1] stands for this setting: genetic background: das1 deletion.

± gives the standard deviation of the averaged measurements.

Turning to PSYCSLRWSHRT [YLR169W C-terminal 12 aa], the protein stability index under setting [1] came out at 0.7331 ± 0.006 and the protein stability index (genetic background: wild type) stood at 0.705 ± 0.029.

Take PTPKALTNEKTH [MGR1 C-terminal 12 aa]: the protein stability index is 0.687 ± 0.017 under setting [1] and 0.664 ± 0.015 (genetic background: wild type).

PTYDNNRHYGND [YFL032W C-terminal 12 aa]: the protein stability index by setting is: under setting [1], 0.671 ± 0.0083; (genetic background: wild type) 0.702 ± 0.018.

On to PVHLEAIDLIDC [HSP150 C-terminal 12 aa], for which the protein stability index by setting is: under setting [1], 0.7087 ± 0.0034; (genetic background: wild type) 0.714 ± 0.024.

PVRMYALKPMPN [TAE1 C-terminal 12 aa]: the protein stability index reads like this: under setting [1], 0.6931 ± 0.0035; (genetic background: wild type) 0.665 ± 0.04.

Consider PWFAPIREQIEK [CKA1 C-terminal 12 aa], for which the protein stability index runs as follows: under setting [1], 0.722 ± 0.011; (genetic background: wild type) 0.7489 ± 0.0034.

For the sequence QAKEVFDKMQKE [FMP23 C-terminal 12 aa], the protein stability index reads like this: under setting [1], 0.7133 ± 0.0026; (genetic background: wild type) 0.686 ± 0.065.

With QARKSKSVSFYA [RPT5 C-terminal 12 aa], the protein stability index under setting [1] is 0.693 ± 0.016 and the protein stability index (genetic background: wild type) was found to be 0.692 ± 0.027.

Consider QDMMSGFLGGSK [GET4 C-terminal 12 aa], for which the protein stability index stood at 0.69072 ± 1.9e-05 under setting [1] and 0.667 ± 0.0077 (genetic background: wild type).

QDNSEVVDLTSD [NFI1 C-terminal 12 aa]: the protein stability index was 0.694 ± 0.012 under setting [1] and 0.6728 ± 0.006 (genetic background: wild type).

Take QGMLQSFLDREL [YOL057W C-terminal 12 aa]: the protein stability index runs as follows: under setting [1], 0.721 ± 0.023; (genetic background: wild type) 0.666 ± 0.042.

Consider QHSRGSPNNSNN [YKU80 C-terminal 12 aa], for which the protein stability index runs as follows: under setting [1], 0.701 ± 0.0071; (genetic background: wild type) 0.708 ± 0.039.

As for QIAGRYVVDTSK [ADH2 C-terminal 12 aa], the protein stability index worked out at 0.6869 ± 0.0057 under setting [1] and 0.6522 ± 0.0027 (genetic background: wild type).

Turning to QINDLEIYRKRL [SNT309 C-terminal 12 aa], the protein stability index reads like this: under setting [1], 0.6847 ± 0.006; (genetic background: wild type) 0.68 ± 0.029.

As to QKLGIIGKNDLK [PSD1 C-terminal 12 aa], the protein stability index is, setting by setting: under setting [1], 0.685 ± 0.029; (genetic background: wild type) 0.709 ± 0.016.

For the sequence QKYQVYKNFETL [UTR4 C-terminal 12 aa], the protein stability index by setting is: under setting [1], 0.7 ± 0.015; (genetic background: wild type) 0.688 ± 0.0077.

Regarding QLHLVLTLRGGN [RUB1 C-terminal 12 aa], the protein stability index reads like this: under setting [1], 0.683 ± 0.011; (genetic background: wild type) 0.74 ± 0.053.

QLSRNEESLMKK [COS5 C-terminal 12 aa]: the protein stability index by setting is: under setting [1], 0.7 ± 0.015; (genetic background: wild type) 0.752 ± 0.059.

For the sequence QMTRNVNNNDFS [YAH1 C-terminal 12 aa], the protein stability index worked out at 0.711 ± 0.028 under setting [1] and 0.664 ± 0.014 (genetic background: wild type).

Consider QMVRDEGFEKNP [GPM3 C-terminal 12 aa], for which the protein stability index under setting [1] amounted to 0.68 ± 0.038 and the protein stability index (genetic background: wild type) is 0.644 ± 0.036.

Consider QPDDKTKGILDR [ERV41 C-terminal 12 aa], for which the protein stability index was 0.7292 ± 0.0051 under setting [1] and 0.682 ± 0.03 (genetic background: wild type).

QQEQDKKKKSNH [PRE6 C-terminal 12 aa]: the protein stability index is, setting by setting: under setting [1], 0.709 ± 0.013; (genetic background: wild type) 0.49 ± 0.013.

As to QRDFLLFYNAIM [CDC36 C-terminal 12 aa], the protein stability index runs as follows: under setting [1], 0.687 ± 0.012; (genetic background: wild type) 0.533 ± 0.075.

As to QSFETVFAGQKP [MET17 C-terminal 12 aa], the protein stability index by setting is: under setting [1], 0.7008 ± 0.0036; (genetic background: wild type) 0.702 ± 0.027.

QTDNTSATNQLL [YSP2 C-terminal 12 aa]: the protein stability index under setting [1] was 0.7 ± 0.0084 and the protein stability index (genetic background: wild type) came to 0.701 ± 0.029.

On to QTINTKPLYIKN [YGR290W C-terminal 12 aa], for which the protein stability index under setting [1] was 0.686 ± 0.02 and the protein stability index (genetic background: wild type) was 0.665 ± 0.075.

On to QVGKSQAQAVTL [ANY1 C-terminal 12 aa], for which the protein stability index reads like this: under setting [1], 0.674 ± 0.0092; (genetic background: wild type) 0.7167 ± 0.0057.

Regarding QVPEEDFPVVNY [DNL4 C-terminal 12 aa], the protein stability index reads like this: under setting [1], 0.697 ± 0.009; (genetic background: wild type) 0.718 ± 0.034.

For RAEVAALAAENK [PFK1 C-terminal 12 aa], the protein stability index reads like this: under setting [1], 0.6903 ± 0.0045; (genetic background: wild type) 0.6608 ± 0.0054.

In the case of RAHITKQKKKGY [SDA1 C-terminal 12 aa], the protein stability index is 0.7317 ± 0.0043 under setting [1] and 0.6636 ± 0.0011 (genetic background: wild type).

Consider RARLIRKKKTIN [YER085C C-terminal 12 aa], for which the protein stability index by setting is: under setting [1], 0.751 ± 0.022; (genetic background: wild type) 0.202 ± 0.022.

As to RAVTPTGKKGRN [YOR296W C-terminal 12 aa], the protein stability index is, setting by setting: under setting [1], 0.675 ± 0.035; (genetic background: wild type) 0.6578 ± 0.0052.

As for “RCNVYIIRCIHH [YOL164W-A C-terminal 12 aa]”, the protein stability index by setting is: under setting [1], 0.5183 ± 0.00055; (genetic background: wild type) 0.51 ± 0.037.

Take RCWVQAVFDVPQ [ABP140 C-terminal 12 aa]: the protein stability index is 0.725 ± 0.011 under setting [1] and 0.691 ± 0.046 (genetic background: wild type).

For RDHDLKDCGDIF [OSH2 C-terminal 12 aa], the protein stability index reads like this: under setting [1], 0.7104 ± 0.0011; (genetic background: wild type) 0.698 ± 0.039.

On to RELFGVGTPQKL [TEA1 C-terminal 12 aa], for which the protein stability index worked out at 0.7173 ± 0.0037 under setting [1] and 0.728 ± 0.023 (genetic background: wild type).

Take RELTDLFGYKLG [SLM4 C-terminal 12 aa]: the protein stability index under setting [1] stood at 0.708 ± 0.015 and the protein stability index (genetic background: wild type) stood at 0.677 ± 0.02.

RESINEAKLRHT [BDH2 C-terminal 12 aa]: the protein stability index by setting is: under setting [1], 0.676 ± 0.02; (genetic background: wild type) 0.63 ± 0.011.

As to REWASNTVKKEK [EMC5 C-terminal 12 aa], the protein stability index is, setting by setting: under setting [1], 0.698 ± 0.013; (genetic background: wild type) 0.692 ± 0.024.

As for RFRVVLGDSDDE [PSH1 C-terminal 12 aa], the protein stability index runs as follows: under setting [1], 0.672 ± 0.043; (genetic background: wild type) 0.721 ± 0.075.

For the sequence RGRGALVDSDDE [ELF1 C-terminal 12 aa], the protein stability index runs as follows: under setting [1], 0.713 ± 0.026; (genetic background: wild type) 0.674 ± 0.046.

For RGSCDNWKKRQN [YBL044W C-terminal 12 aa], the protein stability index under setting [1] worked out at 0.726 ± 0.021 and the protein stability index (genetic background: wild type) was 0.482 ± 0.0072.

RIPKELTGTVRF [GAT4 C-terminal 12 aa]: the protein stability index under setting [1] turned out to be 0.705 ± 0.018 and the protein stability index (genetic background: wild type) came out at 0.672 ± 0.014.

On to RITRLSSMTYTY [YPS5 C-terminal 12 aa], for which the protein stability index reads like this: under setting [1], 0.711 ± 0.038; (genetic background: wild type) 0.69 ± 0.033.

As for RKQAHELRPKSE [SPO7 C-terminal 12 aa], the protein stability index is, setting by setting: under setting [1], 0.77 ± 0.024; (genetic background: wild type) 0.79 ± 0.019.

Take RKSHERPDDVSV [SUR7 C-terminal 12 aa]: the protein stability index reads like this: under setting [1], 0.692 ± 0.018; (genetic background: wild type) 0.69 ± 0.028.

RKSTRSDNPHEA [CBF1 C-terminal 12 aa]: the protein stability index runs as follows: under setting [1], 0.6989 ± 0.0016; (genetic background: wild type) 0.687 ± 0.017.

As to RLDRHFEKKKKV [RDS3 C-terminal 12 aa], the protein stability index by setting is: under setting [1], 0.704 ± 0.023; (genetic background: wild type) 0.7 ± 0.021.

Regarding RLEQGSNGFMFA [NAM8 C-terminal 12 aa], the protein stability index stood at 0.702 ± 0.026 under setting [1] and 0.699 ± 0.011 (genetic background: wild type).

On to RLGASNSSNNDA [SLY1 C-terminal 12 aa], for which the protein stability index runs as follows: under setting [1], 0.702 ± 0.022; (genetic background: wild type) 0.68 ± 0.018.

With RLRKWLSTFVHQ [YNL034W C-terminal 12 aa], the protein stability index is, setting by setting: under setting [1], 0.756 ± 0.045; (genetic background: wild type) 0.182 ± 0.017.

Consider “RMYTRHKTSFPL [YAL042C-A C-terminal 12 aa]”, for which the protein stability index reads like this: under setting [1], 0.711 ± 0.02; (genetic background: wild type) 0.66427 ± 0.00065.

Take RNSGEKLVAVLK [YNL134C C-terminal 12 aa]: the protein stability index by setting is: under setting [1], 0.691 ± 0.0088; (genetic background: wild type) 0.6702 ± 0.0052.

In the case of “RNSPSYTGDHKT [YOR072W-A C-terminal 12 aa]”, the protein stability index came out at 0.722 ± 0.02 under setting [1] and 0.6928 ± 0.0067 (genetic background: wild type).

Turning to RNWLGFCTKYEL [ATG15 C-terminal 12 aa], the protein stability index by setting is: under setting [1], 0.741 ± 0.021; (genetic background: wild type) 0.735 ± 0.047.

Take RPDSTAPSNENQ [PEP1 C-terminal 12 aa]: the protein stability index stood at 0.7262 ± 0.00093 under setting [1] and 0.7245 ± 0.0041 (genetic background: wild type).

As for RPFEIASFRLYF [AMS1 C-terminal 12 aa], the protein stability index is, setting by setting: under setting [1], 0.703 ± 0.026; (genetic background: wild type) 0.683 ± 0.016.

As for RQYAGCKVNVGK [NUS1 C-terminal 12 aa], the protein stability index worked out at 0.707 ± 0.015 under setting [1] and 0.705 ± 0.051 (genetic background: wild type).

Regarding RRIIESINKSQG [HAT1 C-terminal 12 aa], the protein stability index by setting is: under setting [1], 0.659 ± 0.012; (genetic background: wild type) 0.6752 ± 0.0052.

Regarding RRLEMEIANLQE [SPC34 C-terminal 12 aa], the protein stability index is 0.726 ± 0.036 under setting [1] and 0.706 ± 0.028 (genetic background: wild type).

In the case of “RRQSLPKRFPLI [YAR035C-A C-terminal 12 aa]”, the protein stability index runs as follows: under setting [1], 0.717 ± 0.014; (genetic background: wild type) 0.697 ± 0.022.

With RSLLRKSKPLQA [RPM2 C-terminal 12 aa], the protein stability index turned out to be 0.675 ± 0.024 under setting [1] and 0.639 ± 0.018 (genetic background: wild type).

In the case of RSPKKKKNYHKR [NUR1 C-terminal 12 aa], the protein stability index is, setting by setting: under setting [1], 0.74 ± 0.061; (genetic background: wild type) 0.6729 ± 0.006.

As to RTGSQSPPSSSQ [MED7 C-terminal 12 aa], the protein stability index reads like this: under setting [1], 0.707 ± 0.022; (genetic background: wild type) 0.673 ± 0.025.

Consider RVPQSRSFGNLR [NUM1 C-terminal 12 aa], for which the protein stability index under setting [1] is 0.738 ± 0.012 and the protein stability index (genetic background: wild type) came to 0.746 ± 0.038.

In the case of RVSRMRAKRKYQ [YOR300W C-terminal 12 aa], the protein stability index worked out at 0.712 ± 0.034 under setting [1] and 0.6764 ± 0.0037 (genetic background: wild type).

For RYAHIGGLHQRT [PRR2 C-terminal 12 aa], the protein stability index by setting is: under setting [1], 0.709 ± 0.01; (genetic background: wild type) 0.686 ± 0.018.

Source of the values: the supplement of paper PMC10724198.
